In article PMC8763658:

Biological target: MUC1 mucin (tumor‐associated MUC1) on human cancer cells (human (endogenous in T47D, A549, MCF-7)) (UniProt P15941)
UniProt P15941, sequence (P15941 24-1255, stated change not applied): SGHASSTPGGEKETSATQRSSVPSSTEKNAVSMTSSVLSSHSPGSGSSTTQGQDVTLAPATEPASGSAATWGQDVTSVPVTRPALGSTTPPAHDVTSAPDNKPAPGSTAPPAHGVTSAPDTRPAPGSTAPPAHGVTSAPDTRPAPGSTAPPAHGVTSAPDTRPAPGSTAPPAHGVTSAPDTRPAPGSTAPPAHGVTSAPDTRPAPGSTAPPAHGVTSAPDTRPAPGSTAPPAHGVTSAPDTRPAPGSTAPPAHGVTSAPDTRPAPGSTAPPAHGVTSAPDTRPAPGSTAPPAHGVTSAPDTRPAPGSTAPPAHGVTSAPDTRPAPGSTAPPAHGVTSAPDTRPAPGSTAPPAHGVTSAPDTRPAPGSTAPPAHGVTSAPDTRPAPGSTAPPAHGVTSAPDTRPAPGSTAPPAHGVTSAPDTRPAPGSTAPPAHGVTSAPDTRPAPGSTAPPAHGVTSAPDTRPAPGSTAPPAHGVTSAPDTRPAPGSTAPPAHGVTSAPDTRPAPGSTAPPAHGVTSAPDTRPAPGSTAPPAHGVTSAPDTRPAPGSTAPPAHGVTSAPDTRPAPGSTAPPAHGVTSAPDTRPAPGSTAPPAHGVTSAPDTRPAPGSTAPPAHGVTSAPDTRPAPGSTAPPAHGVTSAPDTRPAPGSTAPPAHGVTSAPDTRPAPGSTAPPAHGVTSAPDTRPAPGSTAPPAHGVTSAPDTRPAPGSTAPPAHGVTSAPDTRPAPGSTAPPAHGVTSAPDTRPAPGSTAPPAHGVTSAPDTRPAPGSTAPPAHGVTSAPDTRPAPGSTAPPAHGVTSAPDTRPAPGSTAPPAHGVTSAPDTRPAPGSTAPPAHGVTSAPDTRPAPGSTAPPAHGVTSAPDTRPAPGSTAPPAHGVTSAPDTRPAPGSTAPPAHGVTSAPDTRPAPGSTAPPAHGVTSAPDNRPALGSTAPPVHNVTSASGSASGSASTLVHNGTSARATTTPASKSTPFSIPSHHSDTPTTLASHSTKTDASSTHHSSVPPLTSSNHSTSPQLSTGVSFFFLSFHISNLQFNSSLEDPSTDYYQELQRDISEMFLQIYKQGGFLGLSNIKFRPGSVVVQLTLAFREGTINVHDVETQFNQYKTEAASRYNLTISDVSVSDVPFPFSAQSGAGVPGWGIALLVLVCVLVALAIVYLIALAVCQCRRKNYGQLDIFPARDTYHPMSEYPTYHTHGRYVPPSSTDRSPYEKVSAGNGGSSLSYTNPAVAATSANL

B1: recombinant anti‐MUC1 nanobody (VHH)
VHH: EVQLVESGGGLVQPGGSLRLSCAASGFTFDDYGMSWVRQAPGKWLEWVSDISWNGGSTYYADSVKGRFTISRDNAENTLYLQMNSLKPDDTAVYYCAKMGEGGWGANDYWGQGTQVTVSS
MTT viability assay, A549 cells, 48 h, IC50 of growth inhibition: 14.3 nM
MTT viability assay, MCF7 cells, 48 h, IC50 of growth inhibition: 7 nM
MTT viability assay, MDA‐MB‐231 cells, 48 h, IC50 of growth inhibition: 10 nM
MTT viability assay, SKBR3 cells, IC50 of growth inhibition: 4.16 nM
MTT viability assay, SW742 cells, 48 h, IC50 of growth inhibition: 7.2 nM
MTT viability assay, T47D cells, 48 h, IC50 of growth inhibition: 1.2 nM
